# Source: article PMC2756588
# T1: Cyk3, Q07533
# T1 sequence (Q07533 1-83, looked up): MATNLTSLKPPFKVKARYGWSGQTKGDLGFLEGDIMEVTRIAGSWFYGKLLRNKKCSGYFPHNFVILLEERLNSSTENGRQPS
# T2: Bzz1-1, P38822
# T2 sequence (P38822 478-572, looked up): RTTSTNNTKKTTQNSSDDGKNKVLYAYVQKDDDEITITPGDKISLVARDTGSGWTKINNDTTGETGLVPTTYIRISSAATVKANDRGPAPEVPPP
# T3: Boi2, P39969
# T3 sequence (P39969 32-116, looked up): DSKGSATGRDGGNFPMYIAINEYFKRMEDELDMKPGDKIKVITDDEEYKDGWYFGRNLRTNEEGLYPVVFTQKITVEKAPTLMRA
# T4: Lsb4, P32793
# T4 sequence (P32793 402-468, looked up): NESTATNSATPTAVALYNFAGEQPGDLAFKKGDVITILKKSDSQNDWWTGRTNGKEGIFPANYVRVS
# T5: Pin3, Q06449
# T5 sequence (Q06449 53-122, looked up): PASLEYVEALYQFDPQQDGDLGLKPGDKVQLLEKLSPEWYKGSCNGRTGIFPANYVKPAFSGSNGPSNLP
# T6: Cdc25, P04821
# T6 sequence (P04821 50-136, looked up): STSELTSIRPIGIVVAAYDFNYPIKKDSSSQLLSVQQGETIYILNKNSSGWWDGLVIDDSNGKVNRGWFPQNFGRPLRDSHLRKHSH
# T7: Lsb3, P43603
# T7 sequence (P43603 385-451, looked up): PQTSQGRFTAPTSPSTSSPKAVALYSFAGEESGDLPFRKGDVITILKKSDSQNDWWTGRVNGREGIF
# T8: Lsb1, P53281
# T8 sequence (P53281 45-122, looked up): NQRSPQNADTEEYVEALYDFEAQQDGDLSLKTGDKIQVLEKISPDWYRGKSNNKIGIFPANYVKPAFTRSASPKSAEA
# T9: Nbp2, Q12163
# T9 sequence (Q12163 103-180, looked up): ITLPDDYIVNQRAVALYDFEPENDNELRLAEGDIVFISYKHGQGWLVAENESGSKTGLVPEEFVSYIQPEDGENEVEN
# T10: Bzz1-2, P38822
# T10 sequence (P38822 568-633, looked up): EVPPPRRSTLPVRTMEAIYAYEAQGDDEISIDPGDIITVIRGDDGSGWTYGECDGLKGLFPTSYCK
# T11: Pex13, P80667
# T11 sequence (P80667 295-386, looked up): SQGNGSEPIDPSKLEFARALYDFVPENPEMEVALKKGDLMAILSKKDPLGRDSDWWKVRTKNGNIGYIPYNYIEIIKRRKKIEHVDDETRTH
# T12: Bbc1, P47068
# T12 sequence (P47068 1-78, looked up): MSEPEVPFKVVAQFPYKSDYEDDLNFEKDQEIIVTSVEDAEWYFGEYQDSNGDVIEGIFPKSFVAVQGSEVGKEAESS
# T13: Abp1, P15891
# T13 sequence (P15891 535-592, looked up): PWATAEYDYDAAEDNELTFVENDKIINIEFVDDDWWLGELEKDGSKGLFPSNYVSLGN
# T14: Bud14, P27637
# T14 sequence (P27637 247-328, looked up): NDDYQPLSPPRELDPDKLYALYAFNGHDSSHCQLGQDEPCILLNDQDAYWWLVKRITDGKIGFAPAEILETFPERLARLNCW
# T15: Myo5, Q04439
# T15 sequence (Q04439 1072-1160, looked up): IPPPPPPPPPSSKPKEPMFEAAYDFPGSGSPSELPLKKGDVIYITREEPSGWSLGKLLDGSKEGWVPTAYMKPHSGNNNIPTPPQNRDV
# T16: Hse1, P38753
# T16 sequence (P38753 208-285, looked up): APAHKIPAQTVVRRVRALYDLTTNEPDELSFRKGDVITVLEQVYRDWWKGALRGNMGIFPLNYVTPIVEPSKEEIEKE
# T17: Hof1, Q05080
# T17 sequence (Q05080 590-669, looked up): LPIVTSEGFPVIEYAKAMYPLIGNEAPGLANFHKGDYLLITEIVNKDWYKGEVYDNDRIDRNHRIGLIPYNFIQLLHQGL
# T18: Fus1, P11710
# T18 sequence (P11710 432-512, looked up): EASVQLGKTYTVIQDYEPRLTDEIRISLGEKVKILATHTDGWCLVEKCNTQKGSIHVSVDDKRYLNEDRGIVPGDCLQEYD
# T19: Boi1, P38041
# T19 sequence (P38041 1-86, looked up): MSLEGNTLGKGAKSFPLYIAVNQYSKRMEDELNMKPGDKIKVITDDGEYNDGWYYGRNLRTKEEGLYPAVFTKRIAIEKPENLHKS
# T20: Sla1-2, P32790
# T20 sequence (P32790 60-140, looked up): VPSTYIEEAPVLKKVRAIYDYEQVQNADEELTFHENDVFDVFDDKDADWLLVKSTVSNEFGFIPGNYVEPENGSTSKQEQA
# T21: Sla1-3, P32790
# T21 sequence (P32790 344-424, looked up): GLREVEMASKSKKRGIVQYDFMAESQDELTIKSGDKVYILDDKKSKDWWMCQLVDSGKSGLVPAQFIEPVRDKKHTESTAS
# What was measured:
# Experiment in all cases: SPOT array
# Rvs167, P39743 = conditions: median of control spots 2707
# Cyk3, Q07533 = target: T1, Cyk3, Q07533; conditions: median of control spots 1451
# Bzz1-1, P38822 = target: T2, Bzz1-1, P38822; conditions: median of control spots 4446
# Boi2, P39969 = target: T3, Boi2, P39969; conditions: median of control spots 1161
# Lsb4, P32793 = target: T4, Lsb4, P32793; conditions: median of control spots 397
# Pin3, Q06449 = target: T5, Pin3, Q06449; conditions: median of control spots 2171
# Cdc25, P04821 = target: T6, Cdc25, P04821; conditions: median of control spots 969
# Lsb3, P43603 = target: T7, Lsb3, P43603; conditions: median of control spots 406
# Lsb1, P53281 = target: T8, Lsb1, P53281; conditions: median of control spots 388
# Bem1-2, P29366 = conditions: median of control spots 4347
# Nbp2, Q12163 = target: T9, Nbp2, Q12163; conditions: median of control spots 357
# Bzz1-2, P38822 = target: T10, Bzz1-2, P38822; conditions: median of control spots 4538
# Pex13, P80667 = target: T11, Pex13, P80667; conditions: median of control spots 1341
# Bem1-1, P29366 = conditions: median of control spots 4282
# Bbc1, P47068 = target: T12, Bbc1, P47068; conditions: median of control spots 796
# Sho1, P40073 = conditions: median of control spots 1148
# Abp1, P15891 = target: T13, Abp1, P15891; conditions: median of control spots 935
# GST = conditions: median of control spots 978
# Bud14, P27637 = target: T14, Bud14, P27637; conditions: median of control spots 956
# Myo5, Q04439 = target: T15, Myo5, Q04439; conditions: median of control spots 471
# Hse1, P38753 = target: T16, Hse1, P38753; conditions: median of control spots 1727
# Hof1, Q05080 = target: T17, Hof1, Q05080; conditions: median of control spots 4086
# Myo3, P36006 = conditions: median of control spots 468
# Fus1, P11710 = target: T18, Fus1, P11710; conditions: median of control spots 1200
# Boi1, P38041 = target: T19, Boi1, P38041; conditions: median of control spots 1162
# Sla1-2, P32790 = target: T20, Sla1-2, P32790; conditions: median of control spots 712
# Sla1-3, P32790 = target: T21, Sla1-3, P32790; conditions: median of control spots 5475
# Sequence of Sho1, P40073 (P40073 287-367): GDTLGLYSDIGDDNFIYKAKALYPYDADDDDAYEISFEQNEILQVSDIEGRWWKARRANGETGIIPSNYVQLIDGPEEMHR
# Sequence of Bem1-1, P29366 (P29366 55-141): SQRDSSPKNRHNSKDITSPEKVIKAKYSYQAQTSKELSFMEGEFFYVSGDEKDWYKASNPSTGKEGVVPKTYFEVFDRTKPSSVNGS
# Sequence of Rvs167, P39743 (P39743 419-482): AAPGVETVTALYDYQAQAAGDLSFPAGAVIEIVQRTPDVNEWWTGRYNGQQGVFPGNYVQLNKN
# Sequence of Bem1-2, P29366 (P29366 139-227): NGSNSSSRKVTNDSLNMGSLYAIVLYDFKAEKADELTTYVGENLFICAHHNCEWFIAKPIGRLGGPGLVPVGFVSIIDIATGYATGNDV
"SPOT intensity (Rvs167, P39743)","SPOT intensity (Cyk3, Q07533)","SPOT intensity (Bzz1-1, P38822)","SPOT intensity (Boi2, P39969)","SPOT intensity (Lsb4, P32793)","SPOT intensity (Pin3, Q06449)","SPOT intensity (Cdc25, P04821)","SPOT intensity (Lsb3, P43603)","SPOT intensity (Lsb1, P53281)","SPOT intensity (Bem1-2, P29366)","SPOT intensity (Nbp2, Q12163)","SPOT intensity (Bzz1-2, P38822)","SPOT intensity (Pex13, P80667)","SPOT intensity (Bem1-1, P29366)","SPOT intensity (Bbc1, P47068)","SPOT intensity (Sho1, P40073)","SPOT intensity (Abp1, P15891)",SPOT intensity (GST),"SPOT intensity (Bud14, P27637)","SPOT intensity (Myo5, Q04439)",Binder,other results
0,0,0,1,2,9,2,0,8,3,0,5,10,0,2,17,12,1,0,0,YRRKSIPFAPHQITA,"SPOT intensity (Hse1, P38753): 9; SPOT intensity (Hof1, Q05080): 5; SPOT intensity (Myo3, P36006): 0; SPOT intensity (Fus1, P11710): 2; SPOT intensity (Boi1, P38041): 0; SPOT intensity (Sla1-2, P32790): 0; SPOT intensity (Sla1-3, P32790): 28"
0,8,1,0,0,3,59,0,3,0,9,0,0,0,101,47,75,4,23,0,RKRRTHLRLPLIRSN,"SPOT intensity (Hse1, P38753): 6; SPOT intensity (Hof1, Q05080): 0; SPOT intensity (Myo3, P36006): 5; SPOT intensity (Fus1, P11710): 55; SPOT intensity (Boi1, P38041): 2; SPOT intensity (Sla1-2, P32790): 0; SPOT intensity (Sla1-3, P32790): 14"

# Second part, the binder before the results:
Binder,"SPOT intensity (Rvs167, P39743)","SPOT intensity (Cyk3, Q07533)","SPOT intensity (Bzz1-1, P38822)","SPOT intensity (Boi2, P39969)","SPOT intensity (Lsb4, P32793)","SPOT intensity (Pin3, Q06449)","SPOT intensity (Cdc25, P04821)","SPOT intensity (Lsb3, P43603)","SPOT intensity (Lsb1, P53281)","SPOT intensity (Bem1-2, P29366)","SPOT intensity (Nbp2, Q12163)","SPOT intensity (Bzz1-2, P38822)","SPOT intensity (Pex13, P80667)","SPOT intensity (Bem1-1, P29366)","SPOT intensity (Bbc1, P47068)","SPOT intensity (Sho1, P40073)","SPOT intensity (Abp1, P15891)",SPOT intensity (GST),"SPOT intensity (Bud14, P27637)","SPOT intensity (Myo5, Q04439)",other results
NGRRRPKFRVQLSGN,0,8,1,5,9,11,87,8,114,6,63,0,5,0,227,155,209,3,23,2,"SPOT intensity (Hse1, P38753): 53; SPOT intensity (Hof1, Q05080): 24; SPOT intensity (Myo3, P36006): 30; SPOT intensity (Fus1, P11710): 75; SPOT intensity (Boi1, P38041): 16; SPOT intensity (Sla1-2, P32790): 5; SPOT intensity (Sla1-3, P32790): 221"
RRRDFGAPANKRPRR,0,3,3,1,4,9,11,10,0,4,2,7,2,0,20,90,165,3,4,2,"SPOT intensity (Hse1, P38753): 5; SPOT intensity (Hof1, Q05080): 0; SPOT intensity (Myo3, P36006): 16; SPOT intensity (Fus1, P11710): 8; SPOT intensity (Boi1, P38041): 0; SPOT intensity (Sla1-2, P32790): 0; SPOT intensity (Sla1-3, P32790): 30"
KRNRLKILLPFLEQS,0,14,0,3,0,17,28,2,34,0,22,0,11,0,46,81,64,5,8,0,"SPOT intensity (Hse1, P38753): 25; SPOT intensity (Hof1, Q05080): 6; SPOT intensity (Myo3, P36006): 10; SPOT intensity (Fus1, P11710): 169; SPOT intensity (Boi1, P38041): 9; SPOT intensity (Sla1-2, P32790): 0; SPOT intensity (Sla1-3, P32790): 49"
RVRKTHVPASKRPSG,0,3,0,1,1,1,0,0,0,0,0,0,0,0,11,124,64,2,5,0,"SPOT intensity (Hse1, P38753): 2; SPOT intensity (Hof1, Q05080): 0; SPOT intensity (Myo3, P36006): 1; SPOT intensity (Fus1, P11710): 5; SPOT intensity (Boi1, P38041): 1; SPOT intensity (Sla1-2, P32790): 1; SPOT intensity (Sla1-3, P32790): 6"
